The supplement of paper PMC7877785
± gives the uncertainty stated by the source.

Assay: self-splicing fitness, log relative to wild type (ln ratio); higher = more splicing; Tetrahymena group I intron in knt gene, E. coli kanamycin selection, DiMSum; sequences stand for … in CUCUCU…GGAGGGAAAAGUUAUCAGGCAUGCACCUGGUAGCUAGUCUUUAAACCAAUAGAUUGCAUCGGUUUAAAAGGCAAGACCGUCAAAUUGCGGGAAAGGGGUCAACAGCCGUUCAGUACCAAGUCUCAGGGGAAACUUUGAGAUGGCCUUGCAAAGGGUAUGGUAAUAAGCUGACGGACAUGGUCCUAACCACGCAGCCAAGUCCUAAGUCAACAGAUCUUCUGUUGAUAUGGAUGCAGUUCACAGACUAAAUGUCGGUCGGGGAAGAUGUAUUCUUCUCAUAAGAUAUAGUCGGACCUCUCCUUAAUGGGAGCUAGCGGAUGAAGUGAUGCAACACUGGAGCCGCUGGGAACUAAUUUGUAUGCGAAAGUAUAUUGAUUAGUUUUGGAGUACUCGUGGUCG
How it was run: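 Pooled colonies went to amplicon sequencing on an Illumina HiSeq 2500 after six replicate transformations. The plates were LB agar with 100 μg/mL carbenicillin, 50 μM IPTG and 0.2% rhamnose, with or without 25 μg/mL kanamycin, incubated overnight at 37°C or 30°C. The E. coli BL21(DE3) library had all eight P1ex-region intron nucleotides randomised, the intron placed in the knt kanamycin-resistance gene on pET-22b(+). DiMSum fitness is the error-weighted combination of replicate fold changes, kanamycin against none, normalised to wild type.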

Row | Sequence | self-splicing fitness (ln) (30 °C) | self-splicing fitness (ln) (37 °C)
1 | CUACAGCAAUAUUACGGUUA | -0.432 ± 0.092 | 0.11 ± 0.1
2 | CUACAGCAAUAUUACGUAAA | -3.13 ± 0.16 | -1.92 ± 0.17
3 | CUACAGCAAUAUUACGUCUA | -3.21 ± 0.24 | -3.04 ± 0.33
4 | CUACAGCAAUAUUACGUCUC | -3.38 ± 0.18 | -2.55 ± 0.3
5 | CUACAGCAAUAUUACGUGUA | -3.12 ± 0.14 | -2.93 ± 0.16
6 | CUACAGCAAUAUUACGUGUU | -3.08 ± 0.16 | -2.94 ± 0.15
7 | CUACAGCAAUAUUACGUUCU | -2.56 ± 0.12 | -2.42 ± 0.2
8 | CUAGAGCAAUAUUACGAAAC | -3.57 ± 0.31 | -2.41 ± 0.39
9 | CUAGAGCAAUAUUACGCAGA | -2.47 ± 0.37 | -3.6 ± 0.33
10 | CUAGAGCAAUAUUACGCAGG | -2.12 ± 0.14 | -1.75 ± 0.19
11 | CUAGAGCAAUAUUACGCGGC | -0.707 ± 0.19 | 0.756 ± 0.2
12 | CUAGAGCAAUAUUACGGCGG | -0.275 ± 0.075 | 0.501 ± 0.1
13 | CUAGAGCAAUAUUACGGGAG | -0.494 ± 0.052 | -0.0261 ± 0.075
14 | CUAGAGCAAUAUUACGGGAU | -2.94 ± 0.17 | -1.96 ± 0.23
15 | CUAGAGCAAUAUUACGUCAA | -3.76 ± 0.24 | -2.23 ± 0.21
16 | CUAGAGCAAUAUUACGUGAA | -3.81 ± 0.23 | -2.07 ± 0.26
17 | CUAGAGCAAUAUUACGUGGU | -4.21 ± 0.24 | -3.52 ± 0.33
18 | CUAUAGCAAUAUUACGAUCG | -0.256 ± 0.075 | 0.439 ± 0.1
19 | CUAUAGCAAUAUUACGCAAC | – | -2.26 ± 0.35
20 | CUAUAGCAAUAUUACGCAGG | -2.75 ± 0.34 | –
21 | CUAUAGCAAUAUUACGCCAU | -2.66 ± 0.39 | -2.45 ± 0.37
22 | CUAUAGCAAUAUUACGCCUG | -0.141 ± 0.15 | -0.439 ± 0.14
23 | CUAUAGCAAUAUUACGCGCU | -4.04 ± 0.36 | -2.61 ± 0.41
24 | CUAUAGCAAUAUUACGCUAC | -3.66 ± 0.17 | -2.98 ± 0.2
25 | CUAUAGCAAUAUUACGCUUA | -2.47 ± 0.24 | -2.34 ± 0.3

Row | Sequence | self-splicing fitness (ln) (30 °C) | self-splicing fitness (ln) (37 °C)
26 | CUAUAGCAAUAUUACGGAAU | -3.5 ± 0.4 | –
27 | CUAUAGCAAUAUUACGGACA | -2.77 ± 0.22 | -1.1 ± 0.29
28 | CUAUAGCAAUAUUACGGACC | – | -1.23 ± 0.34
29 | CUAUAGCAAUAUUACGGCGC | -2.5 ± 0.28 | –
30 | CUAUAGCAAUAUUACGGUAG | -2.21 ± 0.14 | -2.58 ± 0.2
31 | CUAUAGCAAUAUUACGUAAG | -0.717 ± 0.058 | 0.183 ± 0.084
32 | CUAUAGCAAUAUUACGUAGA | -3.52 ± 0.33 | -1.87 ± 0.34
33 | CUAUAGCAAUAUUACGUCAG | -1.75 ± 0.11 | -0.591 ± 0.12
34 | CUAUAGCAAUAUUACGUCCA | -4.03 ± 0.36 | -3.13 ± 0.4
35 | CUAUAGCAAUAUUACGUCUA | -3.05 ± 0.36 | -3.16 ± 0.35
36 | CUAUAGCAAUAUUACGUGAA | -4.01 ± 0.19 | -2.51 ± 0.21
37 | CUAUAGCAAUAUUACGUGCG | -1.19 ± 0.1 | -0.322 ± 0.13
38 | CUAUAGCAAUAUUACGUUCG | -0.385 ± 0.094 | -0.145 ± 0.14
39 | CUAUAGCAAUAUUACGUUUU | -3.44 ± 0.16 | -2.61 ± 0.21
40 | CUCAAGCAAUAUUACGACAC | -3.35 ± 0.29 | -2.52 ± 0.3
41 | CUCAAGCAAUAUUACGAGCC | – | -2.67 ± 0.3
42 | CUCAAGCAAUAUUACGAUUU | -3.68 ± 0.21 | -2.4 ± 0.25
43 | CUCAAGCAAUAUUACGCCCA | -3.18 ± 0.4 | -2.01 ± 0.47
44 | CUCAAGCAAUAUUACGCCGU | -3.42 ± 0.17 | -1.88 ± 0.15
45 | CUCAAGCAAUAUUACGCGAC | -1.93 ± 0.16 | -1.45 ± 0.19
46 | CUCAAGCAAUAUUACGCGGC | -3.21 ± 0.25 | -3.15 ± 0.34
47 | CUCAAGCAAUAUUACGCUCA | -3.34 ± 0.26 | -2.49 ± 0.24
48 | CUCAAGCAAUAUUACGCUGU | -3.74 ± 0.21 | -1.59 ± 0.23
49 | CUCAAGCAAUAUUACGGAUC | -3.98 ± 0.43 | -2.19 ± 0.27
50 | CUCAAGCAAUAUUACGGCAA | -3.15 ± 0.32 | -1.32 ± 0.24
